Test results taken from article PMC4967814.

Molecular target: each of 12 IFNα subtypes and IFNω (ISRE-luciferase reporter assay, median IC50)

B1: rontalizumab, in-house-generated recombinant (antibody, INN chains, looked up, V domains shown)
VH: EVQLVESGGGLVQPGGSLRLSCATSGYTFTEYIIHWVRQAPGKGLEWVASINPDYDITNYNQRFKGRFTISLDKSKRTAYLQMNSLRAEDTAVYYCASWISDFFDYWGQGTLVTVSS
VL: DIQMTQSPSSLSASVGDRVTITCRASQSVSTSSYSYMHWYQQKPGKAPKVLISYASNLESGVPSRFSGSGSGTDFTLTISSLQPEDFATYYCQHSWGIPRTFGQGTKVEIKR
median IC50 of inhibition of the IFN-induced ISRE-luciferase reporter response in transfected HEK293 cells: 0.0109 µg/mL
